Results reported in the MegaScale stability set (Tsuboyama et al. 2023).

B1: EHEE_rd2_0601 (parent)
chain: TYTYKLTDEEASRRAEDEWRNRGYDVRVRNNNGTWEVEVR

Variants of: B1
Assay: folding stability dG (cDNA display proteolysis); higher = more stable
Conditions: PBS, room temperature

Folding stability dG [kcal/mol]: each site, then its substitutions
E9: A 1.12 | S 0.61 | Y 1.58 | R 0.802 | T 0.198 | G 0.631 | Q 1.07 | L 1.14 | I 0.934 | P 0.822 | N 0.05 | W 1.26 | D 0.289 | H 0.807 | M 0.936 | K 0.834 | F 1.29 | V 0.885
R13: K 1.45 | G 0.328 | P -0.953 | C 0.559 | F 0.619 | Y 0.805 | W 0.841 | M 0.987 | T 0.582 | V 0.764 | E 0.263 | H 0.979 | Q 0.968 | D 0.014 | A 0.771 | S 0.553 | N 0.767 | I 0.934 | L 1.08
S12: Y 0.95 | F 1.08 | L 1.39 | N -0.531 | T 1.51 | G 1.14 | E -0.128 | M 1.95 | H -0.243 | P -0.764 | D -0.63 | V 2.17 | R 0.481 | W 0.977 | C 2.33 | K 0.553 | A 3.22 | Q 0.072 | I 0.918
A15: S 0.658 | N 0.072 | K 1.37 | I 2.2 | G -0.371 | T 1.43 | W 1.36 | F 1.85 | M 2.13 | Y 1.4 | Q 0.788 | P -0.743 | R 0.442 | V 2.21 | L 2.46 | H 1.43 | E 0.824 | D 0.605
E10: D 1.38 | S 1.22 | I 1.3 | C 1.88 | R 1.06 | F 1.2 | M 1.41 | W 1.28 | K 1.19 | L 1.34 | N 1.12 | P 1.02 | V 1.27 | T 1.23 | G 1.1 | Q 1.41 | H 1.09 | Y 1.29 | A 1.75
A11: N 0.709 | W 0.697 | T 1.19 | E 1.5 | R 0.546 | F 0.664 | K 0.673 | I 0.447 | G 0.768 | M 1.11 | H 0.875 | Y 0.624 | P -0.502 | L 0.971 | Q 1.22 | S 1.58 | D 1.12 | V 0.486
E16: G 1.4 | D -0.24 | L 1.54 | N 0.335 | H 1.08 | A 2.56 | K 0.777 | M 1.68 | F 1.73 | I 1.82
R14: A 1.36 | L 1.33 | T 0.957 | D 0.704 | M 1.2 | P -0.495 | S 0.898 | W 0.994 | G 0.487 | Y 0.942 | N 1.04 | H 1.22 | Q 1.35 | F 1.13 | E 1 | V 1.29 | I 1.35 | K 1.53
D8: G 0.808 | M 0.146 | F 0.427 | V -0.022 | Y 0.298 | Q 0.142 | L 0.261 | S 1.9 | K -0.424 | T 1.74 | A 0.271 | H 0.365 | I 0.306 | N 1.47 | C 1.07 | W 0.339 | E 0.662 | R -0.434
T7: W 1.64 | Q 1.86 | V 1.63 | S 1.63 | P 2.05 | L 1.82 | N 1.62 | Y 2.02 | M 1.78 | R 1.61
